Where no end group is shown, it is not given here.
Assays:
[1] = biological target: T1, histidine-tagged mouse EphA2 Fc fusion protein (mouse, UniProt Q03145 26-535, limits assumed); test: SPR (BIAcore 3000), EphA2 Fc coupled to the chip, equilibrium binding
T1 construct: Bought; also called Eph2 Fc; not shown: Fc region; histidine tag

[2] = biological target: T2, EphB4 Fc; test: immobilized biotinylated peptide capturing Eph receptor Fc
T2 construct: also called EpbB4
T2 sequence (P54761 16-539): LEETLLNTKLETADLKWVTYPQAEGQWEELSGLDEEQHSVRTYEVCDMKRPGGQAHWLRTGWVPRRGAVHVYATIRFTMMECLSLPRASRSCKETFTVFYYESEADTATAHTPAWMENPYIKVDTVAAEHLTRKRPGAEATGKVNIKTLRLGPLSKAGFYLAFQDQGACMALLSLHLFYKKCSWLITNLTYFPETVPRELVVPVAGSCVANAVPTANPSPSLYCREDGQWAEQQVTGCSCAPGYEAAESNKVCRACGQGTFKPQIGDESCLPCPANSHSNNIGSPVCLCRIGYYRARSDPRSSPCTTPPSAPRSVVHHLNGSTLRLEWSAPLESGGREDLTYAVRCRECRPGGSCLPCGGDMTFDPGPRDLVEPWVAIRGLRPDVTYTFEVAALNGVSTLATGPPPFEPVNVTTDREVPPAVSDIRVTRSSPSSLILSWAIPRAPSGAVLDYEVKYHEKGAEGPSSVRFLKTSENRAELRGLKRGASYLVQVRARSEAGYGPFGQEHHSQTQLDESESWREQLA

T1 sequence (Q03145 26-535 limits assumed): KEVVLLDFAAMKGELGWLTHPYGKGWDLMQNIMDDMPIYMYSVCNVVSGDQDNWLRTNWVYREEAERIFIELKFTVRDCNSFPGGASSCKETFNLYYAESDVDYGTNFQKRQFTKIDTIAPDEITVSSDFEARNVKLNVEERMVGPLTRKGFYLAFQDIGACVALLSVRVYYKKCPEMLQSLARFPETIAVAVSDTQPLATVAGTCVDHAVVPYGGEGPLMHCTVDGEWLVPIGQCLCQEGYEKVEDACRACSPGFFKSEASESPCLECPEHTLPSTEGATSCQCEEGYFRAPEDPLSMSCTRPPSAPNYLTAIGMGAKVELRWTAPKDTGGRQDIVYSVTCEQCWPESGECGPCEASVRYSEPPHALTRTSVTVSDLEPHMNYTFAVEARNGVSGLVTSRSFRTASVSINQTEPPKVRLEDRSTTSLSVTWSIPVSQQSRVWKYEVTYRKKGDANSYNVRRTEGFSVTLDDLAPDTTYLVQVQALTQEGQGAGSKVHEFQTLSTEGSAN

Binder	Kd [1] [nM]	fold more EphB4 bound than other EphB family receptors [2] [fold]
SWLAYPGAVSYRGSGSK (also: biotinylated (position not given here)) [synthetic SWL peptide (SWLAYPGAVSYR)]	678	
DALNDWLLFRPWGSGSK (also: biotinylated (position not given here)) [synthetic DAL peptide (DALNDWLLFRPW)]		4
